*1 amine or outer side, *2 acyl side, *3 side chain or, on linkers, in order; H or OH if unused. The star is where a group is joined. C20 diacid = O=C(O)CCCCCCCCCCCCCCCCCCC(=O)*; C18 diacid = O=C(O)CCCCCCCCCCCCCCCCC(=O)*; γGlu = O=C(O)[C@H](CCC(=O)[*:2])N[*:1]
B1: N^1-[(4S)-4-carboxy-4-(17-carboxyheptadecanoylamino)butanoyl]-[Ala1,Ser2,His3,Leu4,Ser5,Ala7,Gln8,Glu14,His17,Asp21, Pro22,Pro27,Asp31, Pro34,Pro37]-human … (peptide)
peptide: {C18 diacid-γGlu}-ASHLSTAQTQRLAEFLHHSSDPFGAIPSSTDVGPNTP-NH2
SMILES: CC[C@H](C)[C@H](NC(=O)[C@H](C)NC(=O)CNC(=O)[C@H](Cc1ccccc1)NC(=O)[C@@H]1CCCN1C(=O)[C@H](CC(=O)O)NC(=O)[C@H](CO)NC(=O)[C@H](CO)NC(=O)[C@H](Cc1c[nH]cn1)NC(=O)[C@H](Cc1c[nH]cn1)NC(=O)[C@H](CC(C)C)NC(=O)[C@H](Cc1ccccc1)NC(=O)[C@H](CCC(=O)O)NC(=O)[C@H](C)NC(=O)[C@H](CC(C)C)NC(=O)[C@H](CCCNC(=N)N)NC(=O)[C@H](CCC(N)=O)NC(=O)[C@@H](NC(=O)[C@H](CCC(N)=O)NC(=O)[C@H](C)NC(=O)[C@@H](NC(=O)[C@H](CO)NC(=O)[C@H](CC(C)C)NC(=O)[C@H](Cc1c[nH]cn1)NC(=O)[C@H](CO)NC(=O)[C@H](C)NC(=O)CC[C@H](NC(=O)CCCCCCCCCCCCCCCCC(=O)O)C(=O)O)[C@@H](C)O)[C@@H](C)O)C(=O)N1CCC[C@H]1C(=O)N[C@@H](CO)C(=O)N[C@@H](CO)C(=O)N[C@H](C(=O)N[C@@H](CC(=O)O)C(=O)N[C@H](C(=O)NCC(=O)N1CCC[C@H]1C(=O)N[C@@H](CC(N)=O)C(=O)N[C@H](C(=O)N1CCC[C@H]1C(N)=O)[C@@H](C)O)C(C)C)[C@@H](C)O
B2: N^1-[(4S)-4-carboxy-4-(19-carboxynonadecanoylamino)butanoyl]-[Ala1,Ser2,His3,Leu4,Ser5,Ala7,Gln8,Glu14,His17,Pro25,Pro28,Pro29,Asp31,Glu35,Pro37],des-(19-22)-hu … (peptide)
peptide: {C20 diacid-γGlu}-ASHLSTAQTQRLAEFLHHFGPILPPTDVGSETP-NH2
SMILES: CC[C@H](C)[C@H](NC(=O)[C@@H]1CCCN1C(=O)CNC(=O)[C@H](Cc1ccccc1)NC(=O)[C@H](Cc1c[nH]cn1)NC(=O)[C@H](Cc1c[nH]cn1)NC(=O)[C@H](CC(C)C)NC(=O)[C@H](Cc1ccccc1)NC(=O)[C@H](CCC(=O)O)NC(=O)[C@H](C)NC(=O)[C@H](CC(C)C)NC(=O)[C@H](CCCNC(=N)N)NC(=O)[C@H](CCC(N)=O)NC(=O)[C@@H](NC(=O)[C@H](CCC(N)=O)NC(=O)[C@H](C)NC(=O)[C@@H](NC(=O)[C@H](CO)NC(=O)[C@H](CC(C)C)NC(=O)[C@H](Cc1c[nH]cn1)NC(=O)[C@H](CO)NC(=O)[C@H](C)NC(=O)CC[C@H](NC(=O)CCCCCCCCCCCCCCCCCCC(=O)O)C(=O)O)[C@@H](C)O)[C@@H](C)O)C(=O)N[C@@H](CC(C)C)C(=O)N1CCC[C@H]1C(=O)N1CCC[C@H]1C(=O)N[C@H](C(=O)N[C@@H](CC(=O)O)C(=O)N[C@H](C(=O)NCC(=O)N[C@@H](CO)C(=O)N[C@@H](CCC(=O)O)C(=O)N[C@H](C(=O)N1CCC[C@H]1C(N)=O)[C@@H](C)O)C(C)C)[C@@H](C)O
B3: N^1-[(4S)-4-carboxy-4-(17-carboxyheptadecanoylamino)butanoyl]-[Ala1,Ser2,His3,Leu4,Ser5,Ala7,Gln8,Ala10,Glu14,His17,Asp21,Pro22,Pro27,Asp31,Pro34,Asp35,Pro37]-h … (peptide)
peptide: {C18 diacid-γGlu}-ASHLSTAQTARLAEFLHHSSDPFGAIPSSTDVGPDTP-NH2
SMILES: CC[C@H](C)[C@H](NC(=O)[C@H](C)NC(=O)CNC(=O)[C@H](Cc1ccccc1)NC(=O)[C@@H]1CCCN1C(=O)[C@H](CC(=O)O)NC(=O)[C@H](CO)NC(=O)[C@H](CO)NC(=O)[C@H](Cc1c[nH]cn1)NC(=O)[C@H](Cc1c[nH]cn1)NC(=O)[C@H](CC(C)C)NC(=O)[C@H](Cc1ccccc1)NC(=O)[C@H](CCC(=O)O)NC(=O)[C@H](C)NC(=O)[C@H](CC(C)C)NC(=O)[C@H](CCCNC(=N)N)NC(=O)[C@H](C)NC(=O)[C@@H](NC(=O)[C@H](CCC(N)=O)NC(=O)[C@H](C)NC(=O)[C@@H](NC(=O)[C@H](CO)NC(=O)[C@H](CC(C)C)NC(=O)[C@H](Cc1c[nH]cn1)NC(=O)[C@H](CO)NC(=O)[C@H](C)NC(=O)CC[C@H](NC(=O)CCCCCCCCCCCCCCCCC(=O)O)C(=O)O)[C@@H](C)O)[C@@H](C)O)C(=O)N1CCC[C@H]1C(=O)N[C@@H](CO)C(=O)N[C@@H](CO)C(=O)N[C@H](C(=O)N[C@@H](CC(=O)O)C(=O)N[C@H](C(=O)NCC(=O)N1CCC[C@H]1C(=O)N[C@@H](CC(=O)O)C(=O)N[C@H](C(=O)N1CCC[C@H]1C(N)=O)[C@@H](C)O)C(C)C)[C@@H](C)O
B4: N^1-[(4S)-4-carboxy-4-(17-carboxyheptadecanoylamino)butanoyl]-[Ala1,Ser2,Gln3,Leu4,Ser5,Ala7,Gln8,Glu14, His17,Asp21, Pro22, Pro27,Asp31,Pro34,Asp35, … (peptide)
peptide: {C18 diacid-γGlu}-ASQLSTAQTQRLAEFLHHSSDPFGAIPSSTDVGPDTP-NH2
SMILES: CC[C@H](C)[C@H](NC(=O)[C@H](C)NC(=O)CNC(=O)[C@H](Cc1ccccc1)NC(=O)[C@@H]1CCCN1C(=O)[C@H](CC(=O)O)NC(=O)[C@H](CO)NC(=O)[C@H](CO)NC(=O)[C@H](Cc1c[nH]cn1)NC(=O)[C@H](Cc1c[nH]cn1)NC(=O)[C@H](CC(C)C)NC(=O)[C@H](Cc1ccccc1)NC(=O)[C@H](CCC(=O)O)NC(=O)[C@H](C)NC(=O)[C@H](CC(C)C)NC(=O)[C@H](CCCNC(=N)N)NC(=O)[C@H](CCC(N)=O)NC(=O)[C@@H](NC(=O)[C@H](CCC(N)=O)NC(=O)[C@H](C)NC(=O)[C@@H](NC(=O)[C@H](CO)NC(=O)[C@H](CC(C)C)NC(=O)[C@H](CCC(N)=O)NC(=O)[C@H](CO)NC(=O)[C@H](C)NC(=O)CC[C@H](NC(=O)CCCCCCCCCCCCCCCCC(=O)O)C(=O)O)[C@@H](C)O)[C@@H](C)O)C(=O)N1CCC[C@H]1C(=O)N[C@@H](CO)C(=O)N[C@@H](CO)C(=O)N[C@H](C(=O)N[C@@H](CC(=O)O)C(=O)N[C@H](C(=O)NCC(=O)N1CCC[C@H]1C(=O)N[C@@H](CC(=O)O)C(=O)N[C@H](C(=O)N1CCC[C@H]1C(N)=O)[C@@H](C)O)C(C)C)[C@@H](C)O
B5: N^1-[(4S)-4-carboxy-4-(17-carboxyheptadecanoylamino)butanoyl]-[Ala1,Ser2,Ala3,Leu4,Ser5,Ala7,Gln8,Ala10,Glu14, His17,Asp21, Pro25, Pro28, Pro29,Asp31, … (peptide)
peptide: {C18 diacid-γGlu}-ASALSTAQTARLAEFLHHSSDNFGPILPPTDVGSNTP-NH2
SMILES: CC[C@H](C)[C@H](NC(=O)[C@@H]1CCCN1C(=O)CNC(=O)[C@H](Cc1ccccc1)NC(=O)[C@H](CC(N)=O)NC(=O)[C@H](CC(=O)O)NC(=O)[C@H](CO)NC(=O)[C@H](CO)NC(=O)[C@H](Cc1c[nH]cn1)NC(=O)[C@H](Cc1c[nH]cn1)NC(=O)[C@H](CC(C)C)NC(=O)[C@H](Cc1ccccc1)NC(=O)[C@H](CCC(=O)O)NC(=O)[C@H](C)NC(=O)[C@H](CC(C)C)NC(=O)[C@H](CCCNC(=N)N)NC(=O)[C@H](C)NC(=O)[C@@H](NC(=O)[C@H](CCC(N)=O)NC(=O)[C@H](C)NC(=O)[C@@H](NC(=O)[C@H](CO)NC(=O)[C@H](CC(C)C)NC(=O)[C@H](C)NC(=O)[C@H](CO)NC(=O)[C@H](C)NC(=O)CC[C@H](NC(=O)CCCCCCCCCCCCCCCCC(=O)O)C(=O)O)[C@@H](C)O)[C@@H](C)O)C(=O)N[C@@H](CC(C)C)C(=O)N1CCC[C@H]1C(=O)N1CCC[C@H]1C(=O)N[C@H](C(=O)N[C@@H](CC(=O)O)C(=O)N[C@H](C(=O)NCC(=O)N[C@@H](CO)C(=O)N[C@@H](CC(N)=O)C(=O)N[C@H](C(=O)N1CCC[C@H]1C(N)=O)[C@@H](C)O)C(C)C)[C@@H](C)O
B6: N^1-[(4S)-4-carboxy-4-(17-carboxyheptadecanoylamino)butanoyl]-[Ala1,Ser2,Gln3,Leu4,Ser5,Ala7,Gln8,Ala10,Glu14,His17,Asp21,Pro25,Pro28,Pro29,Asp31,Pro37]-human … (peptide)
peptide: {C18 diacid-γGlu}-ASQLSTAQTARLAEFLHHSSDNFGPILPPTDVGSNTP-NH2
SMILES: CC[C@H](C)[C@H](NC(=O)[C@@H]1CCCN1C(=O)CNC(=O)[C@H](Cc1ccccc1)NC(=O)[C@H](CC(N)=O)NC(=O)[C@H](CC(=O)O)NC(=O)[C@H](CO)NC(=O)[C@H](CO)NC(=O)[C@H](Cc1c[nH]cn1)NC(=O)[C@H](Cc1c[nH]cn1)NC(=O)[C@H](CC(C)C)NC(=O)[C@H](Cc1ccccc1)NC(=O)[C@H](CCC(=O)O)NC(=O)[C@H](C)NC(=O)[C@H](CC(C)C)NC(=O)[C@H](CCCNC(=N)N)NC(=O)[C@H](C)NC(=O)[C@@H](NC(=O)[C@H](CCC(N)=O)NC(=O)[C@H](C)NC(=O)[C@@H](NC(=O)[C@H](CO)NC(=O)[C@H](CC(C)C)NC(=O)[C@H](CCC(N)=O)NC(=O)[C@H](CO)NC(=O)[C@H](C)NC(=O)CC[C@H](NC(=O)CCCCCCCCCCCCCCCCC(=O)O)C(=O)O)[C@@H](C)O)[C@@H](C)O)C(=O)N[C@@H](CC(C)C)C(=O)N1CCC[C@H]1C(=O)N1CCC[C@H]1C(=O)N[C@H](C(=O)N[C@@H](CC(=O)O)C(=O)N[C@H](C(=O)NCC(=O)N[C@@H](CO)C(=O)N[C@@H](CC(N)=O)C(=O)N[C@H](C(=O)N1CCC[C@H]1C(N)=O)[C@@H](C)O)C(C)C)[C@@H](C)O

target: T1, human amylin-3(a) receptor (human, UniProt P30988 25-474; O60896 24-148); assay: cell-based or functional assay
T1 sequence (looked up) 1: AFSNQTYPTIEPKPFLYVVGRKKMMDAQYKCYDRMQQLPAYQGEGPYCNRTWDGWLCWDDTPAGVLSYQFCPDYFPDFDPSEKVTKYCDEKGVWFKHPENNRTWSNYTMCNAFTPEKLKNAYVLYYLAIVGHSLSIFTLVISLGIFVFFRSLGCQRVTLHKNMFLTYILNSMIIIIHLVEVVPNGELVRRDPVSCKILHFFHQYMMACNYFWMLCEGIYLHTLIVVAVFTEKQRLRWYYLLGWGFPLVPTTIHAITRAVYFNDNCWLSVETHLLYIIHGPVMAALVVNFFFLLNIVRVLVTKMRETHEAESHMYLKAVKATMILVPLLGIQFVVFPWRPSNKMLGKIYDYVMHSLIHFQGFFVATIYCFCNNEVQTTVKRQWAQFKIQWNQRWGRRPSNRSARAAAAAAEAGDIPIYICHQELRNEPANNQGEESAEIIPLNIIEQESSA
T1 sequence (looked up) 2: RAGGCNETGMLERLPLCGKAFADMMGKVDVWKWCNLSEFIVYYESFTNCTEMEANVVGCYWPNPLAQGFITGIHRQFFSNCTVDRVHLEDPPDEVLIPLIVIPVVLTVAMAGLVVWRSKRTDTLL

Compared with B1, B2 is lower in “hAmyR3 potency, EC50 (pM); CRE-luciferase reporter in BHK cells” value (shortened to “hAmyR3 potency, EC50 (pM)”): 1.31 pM for the first, 1.12 pM for the second.

Going from B3 to B4, the “hAmyR3 potency, EC50 (pM)” value rises from 1.27 pM to 1.49 pM.

Going from B5 to B6, the “hAmyR3 potency, EC50 (pM)” value falls from 1.62 pM to 1.22 pM.

target: T2, human calcitonin receptor (a) (human, UniProt P30988 25-474); assay: cell-based or functional assay
T2 sequence (looked up): T1 sequence (looked up) 1

First: B1
Second: B2
The “hCalcR potency, EC50 (pM); CRE-luciferase reporter in BHK cells” value (shortened to “hCalcR potency, EC50 (pM)”) of the first is higher: 2.19 pM for the first, 1.44 pM for the second.

First: B3
Second: B4
The “hCalcR potency, EC50 (pM)” value of the first is lower: 1.5 pM for the first, 1.56 pM for the second.

Going from B5 to B6, the “hCalcR potency, EC50 (pM)” value rises from 1.58 pM to 1.86 pM.

Source: US20260209293A1 (Novo Nordisk, published 2026)
